Data from patent US20240384250A1, “FIBROBLAST GROWTH FACTOR 23 MODULATING COMPOUNDS” (THE UAB RESEARCH FOUNDATION, priority 2021, published 2024).
Values belong to the binder of their own block, whether it stands above or below them.

How the values were obtained:
[1] = target: Fc-tagged human FGFR4 ectodomain (human), P22455; test: SPR: Fc-FGFR4 on the chip, FGF23 with heparin in solution (FIG. 11E); conditions: remark: other sources report otherwise
[2] = target: Fc-tagged human FGFR4 ectodomain (human), P22455; test: SPR: Fc-FGFR4 on the chip, FGF23 with sKL (human ectodomain, self-made) in solution (FIG. 11F); conditions: remark: other sources report otherwise
[3] = target: Fc-tagged human FGFR4 ectodomain (human), P22455; test: SPR: Fc-FGFR4 on the chip, FGF23 with sKL or heparin in solution; conditions: remark: other sources report otherwise
[4] = target: Fc-tagged human FGFR4 ectodomain (human), P22455; test: SPR (BIAcore T200): Fc-FGFR4 amine-coupled to the chip, FGF23 injected at 1000-63 nM, 25 °C; conditions: remark: other sources report otherwise
[5] = target: Fc-tagged human FGFR1c ectodomain (human) (UniProt P11362); test: plate assay: 100 ng FGF23 coated, 400 ng purified sKL-N694Q or wildtype, then 200 ng Fc-FGFR1c (FIG. 25F)
Sequence of Fc-tagged human FGFR1c ectodomain (human) (P11362 22-376 limits assumed): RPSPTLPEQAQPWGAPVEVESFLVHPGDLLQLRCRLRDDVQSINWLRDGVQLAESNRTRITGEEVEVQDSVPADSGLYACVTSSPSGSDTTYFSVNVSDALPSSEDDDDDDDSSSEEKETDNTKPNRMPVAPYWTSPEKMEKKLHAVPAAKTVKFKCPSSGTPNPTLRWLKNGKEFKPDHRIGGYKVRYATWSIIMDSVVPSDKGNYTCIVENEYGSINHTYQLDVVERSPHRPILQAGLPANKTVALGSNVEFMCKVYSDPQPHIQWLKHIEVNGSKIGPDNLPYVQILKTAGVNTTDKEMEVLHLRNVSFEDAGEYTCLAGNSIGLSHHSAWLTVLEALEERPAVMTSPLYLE

Sequence of Fc-tagged human FGFR4 ectodomain (human), P22455 (P22455 22-369): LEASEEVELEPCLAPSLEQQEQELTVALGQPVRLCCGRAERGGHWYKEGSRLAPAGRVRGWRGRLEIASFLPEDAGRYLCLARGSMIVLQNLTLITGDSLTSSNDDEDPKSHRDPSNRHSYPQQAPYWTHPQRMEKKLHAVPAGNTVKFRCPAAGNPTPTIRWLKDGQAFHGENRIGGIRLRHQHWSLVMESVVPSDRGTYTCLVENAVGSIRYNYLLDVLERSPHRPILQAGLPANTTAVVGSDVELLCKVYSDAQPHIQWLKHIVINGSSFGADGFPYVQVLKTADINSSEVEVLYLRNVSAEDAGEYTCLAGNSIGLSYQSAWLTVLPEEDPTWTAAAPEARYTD

fold increase in binding affinity in the presence of heparin [1]: 3 fold | fold increase in binding affinity in the presence of sKL [2]: 13 fold | fold, effect of sKL on FGFR4 affinity for FGF23 against that of heparin [3]: 4 to 5 fold | Kd [4]: 320 nM | koff [4]: 0.04 s⁻¹ | kon [4]: 120000 M⁻¹ s⁻¹
B1: human FGF23, Q9GZV9 25-251 (ligand, UniProt Q9GZV9 25-251, looked up)
chain: YPNASPLLGSSWGGLIHLYTATARNSYHLQIHKNGHVDGAPHQTIYSALMIRSEDAGFVVITGVMSRRYLCMDFRGNIFGSHYFDPENCRFQHQTLENGYDVYHSPQYHFLVSLGRAKRAFLPGMNPPPYSQFLSRRNEIPLIHFNTPIPRRHTRSAEDDSERDPLNVLKPRARMTPAPASCSQELPSAEDNSPMASDPLGVVRGGRVNTHAGGTGPEGCRPFAKFI

fold increase in formation of the trimeric FGF23/FGFR1c/sKL complex against wildtype sKL [5]: 3 fold
B2: complex of FGF23 and sKL-N694Q (protein, part only; not given: FGF23 and C-terminal FLAG/His tag, not shown: small tags and cut ends)
chain: EPGDGAQTWARFSRPPAPEAAGLFQGTFPDGFLWAVGSAAYQTEGGWQQHGKGASIWDTFTHHPLAPPGDSRNASLPLGAPSPLQPATGDVASDSYNNVFRDTEALRELGVTHYRFSISWARVLPNGSAGVPNREGLRYYRRLLERLRELGVQPVVTLYHWDLPQRLQDAYGGWANRALADHFRDYAELCFRHFGGQVKYWITIDNPYVVAWHGYATGRLAPGIRGSPRLGYLVAHNLLLAHAKVWHLYNTSFRPTQGGQVSIALSSHWINPRRMTDHSIKECQKSLDFVLGWFAKPVFIDGDYPESMKNNLSSILPDFTESEKKFIKGTADFFALCFGPTLSFQLLDPHMKFRQLESPNLRQLLSWIDLEFNHPQIFIVENGWFVSGTTKRDDAKYMYYLKKFIMETLKAIKLDGVDVIGYTAWSLMDGFEWHRGYSIRRGLFYVDFLSQDKMLLPKSSALFYQKLIEKNGFPPLPENQPLEGTFPCDFAWGVVDNYIQVDTTLSQFTDLNVYLWDVHHSKRLIKVDGVVTKKRKSYCVDFAAIQPQIALLQEMHVTHFRFSLDWALILPLGNQSQVNHTILQYYRCMASELVRVNITPVVALWQPMAPNQGLPRLLARQGAWENPYTALAFAEYARLCFQELGHHVKLWITMNEPYTRQMTYSAGHNLLKAHALAWHVYNEKFRHAQNGKISIALQADWIEPACPFSQKDKEVAERVLEFDIGWLAEPIFGSGDYPWVMRDWLNQRNNFLLPYFTEDEKKLIQGTFDFLALSHYTTILVDSEKEDPIKYNDYLEVQEMTDITWLNSPSQVAVVPWGLRKVLNWLKFKYGDLPMYIISNGIDDGLHAEDDQLRVYYMQNYINEALKAHILDGINLCGYFAYSFNDRTAPRFGLYRYAADQFEPKASMKHYRKIIDSNGFPGPETLERFCPEEFTVCTECSFFHTRKS
